Test results from publication PMC3992431 (Current biology : CB, 2014).
Where two headings read alike, the source gives them in different places. Blank lines part the entries; values can stand above or below the binder they belong to.

Columns and labels:
actin filaments [1] = molecular target: T1, actin filaments (rabbit, UniProt P68135 1-377); assay: co-sedimentation
[2] = molecular target: the molecule itself; assay: two-color TIRF microscopy
[3] = molecular target: the molecule itself; assay: two-color TIRF microscopy; remark: listed apart in the source
actin filaments [4] = molecular target: T1, actin filaments; assay: co-sedimentation; remark: listed apart in the source

- stoichiometry N (actin filaments [1]): 1 INF2 monomer:actin monomer
B1: INF2-FFC (domain or fragment)
chain: not shown

B2: GFP-INF2-FFC (domain or fragment)
chain: not shown
- stoichiometry N [2]: 2.17 molecules
- stoichiometry N [3]: 2.06 molecules

- fold lower affinity than INF2-FFC (actin filaments [4]): 5 fold
B3: INF2-FF (domain or fragment)
chain: not shown
